In assay [1] the target is Epithelial Cell Adhesion Molecule (EpCAM) (human) (UniProt P16422).
Assay [2] shares this target. This is another data set of the same source.
Assay [3] shares this target. The source holds these as a separate data set.
Assay [4] has as its target T1, Epithelial Cell Adhesion Molecule (EpCAM) (human, UniProt P16422 24-314).
T1 sequence (looked up): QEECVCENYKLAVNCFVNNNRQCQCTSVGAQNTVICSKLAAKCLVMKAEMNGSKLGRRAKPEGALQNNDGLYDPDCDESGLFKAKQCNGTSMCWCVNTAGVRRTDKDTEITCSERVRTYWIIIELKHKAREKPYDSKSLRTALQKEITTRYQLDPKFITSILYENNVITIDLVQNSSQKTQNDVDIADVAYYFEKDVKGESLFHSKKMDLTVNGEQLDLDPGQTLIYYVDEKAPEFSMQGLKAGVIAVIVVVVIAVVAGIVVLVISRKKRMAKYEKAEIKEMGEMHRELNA

For assay [5], the target named is T1, Epithelial Cell Adhesion Molecule …. The experiment in a line: flow cytometry on OVCAR-3 cells (EpCAM-positive), purified protein at 100 ng/mL.
For assay [6] the target is unchanged. Put plainly: flow cytometry on HT-29 cells (EpCAM-positive), purified protein at 100 ng/mL. For orientation: A flow cytometer gives signals particle by particle.
For assay [7] the target is unchanged. This is another data set of the same source.
The target is the same in assay [8]. Put plainly: cell-based or functional assay.
Assay [9] shares this target. Put plainly: flow cytometry on MCF-7 cells (EpCAM-positive), purified protein at 100 ng/mL.
The target is the same in assay [10]. The experiment in a line: flow cytometry on CAL-27 cells (EpCAM-positive), purified protein at 100 ng/mL.
The target is the same in assay [11]. The source holds these as a separate data set.
For assay [12] the target is unchanged. This is another data set of the same source.
Assay [13] shares this target. Put plainly: flow cytometry titration (3.2 to 1000 ng/mL) on CAL-27 cells, Lineweaver-Burk plot.
Assay [14] has as its target T2, Epithelial Cell Adhesion Molecule (EpCAM) (human, UniProt P16422 24-314).
T2 chain: T1 sequence (looked up)
The experiment in a line: flow cytometry (Lineweaver-Burk), Cal-27 cells.

This note sets out measurements from patent US20160237164A1 (VIVENTIA BIO, published 2016).

Positions count from the first letter of the chain named. Like-named read-outs stand apart in the source and are kept apart here.

Consider VB6-845 VH-N53 / VL-WT (Fab), for which the MF (median fluorescence, % of WT) in assay [1] was 23 % of WT.

With “VB6-845 VH-WT / VL-CDR2 (E51-H53-Q55) (Fab)”, the MF (median fluorescence, % of WT) in assay [2] is 70 % of WT.

As to “VB6-845 VH-WT / VL-FR2 (D41-Q42), first version (Fab)”, the MF (median fluorescence, % of WT) in assay [3] was 84 % of WT.

Turning to “VB6-845 VH-WT / VL-FR2 (H39-S42), second version (Fab)”, the MF (median fluorescence, % of WT) in [2] was 68 % of WT.

VB6-845 VH-S93 / VL-WT (Fab): the MF (median fluorescence, % of WT) in assay [1] was 35 % of WT.

B1: VB6-845-(VH-IIr-CDR1/VL-Ir-Q50) (Fab)
chain 1: EVQLVQSGPGLVQPGGSVRISCAASGYTFTNYGMNWVKQAPGKGLEWMGWINTYTGESTYADSFKGRFTFSLDTSASAAYLQINSLRAEDTAVYYCARFAIKGDYWGQGTLLTVSSASTKGPSVFPLAPSSKSTSGGTAALGCLVKDYFPEPVTVSWNSGALTSGVHTFPAVLQSSGLYSLSSVVTVPSSSLGTQTYICNVNHKPSNTKVDKKVEPKSCTRHRQPRGWEQLYNTVSFNLGEAYEYPTFIQDLRNELAKGTPVCQLPVTLQTIADDKRFVLVDITTTSKKTVKVAIDVTDVYVVGYQDKWDGKDRAVFLDKVPTVATSKLFPGVTNRVTLTFDGSYQKLVNAAKADRKALELGVNKLEFSIEAIHGKTINGQEAAKFFLIVIQMVSEAARFKYIETEVVDRGLYGSFKPNFKVLNLENNWGDISDAIHKSSPQCTTINPALQLISPSNDPWVVNKVSQISPDMGILKFKSSK
chain 2: HHHHHHDIQMTQSPSSLSASVGDRVTITCRSTKSLLHSNGITYLYWYQQKPGKAPKLLIYQMSNLASGVPSRFSSSGSGTDFTLTISSLQPEDFATYYCAQNLEIPRTFGQGTKVELKRTVAAPSVFIFPPSDEQLKSGTASVVCLLNNFYPREAKVQWKVDNALQSGNSQESVTEQDSKDSTYSLSSTLTLSKADYEKHKVYACEVTHQGLSSPVTKSFNRGEC
For B1, the “MF (median fluorescence, % of WT)” value in assay [4] was 78 % of WT.

B2: VB6-845-Algo (VH-IIr-N35-Q98 / VL-IIr-KSHI) (Fab)
heavy: EVQLQQSGPGLVQPGGSVRISCAASGYTFTAYGMNWVRQAPGKGLEWMGWINTYTGESTYADSFKGRFEFSLDTHNSSAYLQIQSLREEDTAVYYCARFAIQGDYWGQGTLVTVSSASTKGPSVFPLAPSSKSTSGGTAALGCLVKDYFPEPVTVSWNSGALTSGVHTFPAVLQSSGLYSLSSVVTVPSSSLGTQTYICNVNHKPSNTKVDKKVEPKSC
light: DIQMTQSPSSLSASVGDRVTITCKSTKSLLHSNGITYLYWYQQKPGSAPKLLIYQMSHLASGVPSRFSSSGSGTDFTLTISSLQPEDFATYYCAQNLEIPRTFGQGTKVEIKRTVAAPSVFIFPPSDEQLKSGTASVVCLLNNFYPREAKVQWKVDNALQSGNSQESVTEQDSKDSTYSLSSTLTLSKADYEKHKVYACEVTHQGLSSPVTKSFNRGECTRHRQPRGWEQKYNTVSFNLGEAYEYPTFIQDLRNELAKGTPVCQLPVTLQTIADDKRFVLVDITTTSKKTVKVAIDVTDVYVVGYQDKWDGKDRAVFLDKVPTVATSKLFPGVTNRVTLTFDGSYQKLVNAAKADRKALELGVNKLEFSIEAIHGKTINGQEAAKFFLIVIQMVSEAARFKYIETEVVDRGLYGSFKPNFKVLNLENNWGDISDAIHKSSPQCTTINPALQLISPSNDPWVVNKVSQISPDMGILKFKSSK
For B2, the “FI (fold increase) at 100 ng/mL” value in assay [5] worked out at 40.9 fold. Besides, in assay [6], the “FI (fold increase) at 100 ng/mL” value was 41.6 fold. In addition, the “MF (median fluorescence, % of WT)” value in [7] is 94 % of WT. Moreover, in assay [8], the “IC50 (nM), MTS cytotoxicity assay, CAL-27 (EpCAM-positive)” value stood at 18 nM; the “IC50 (nM), MTS cytotoxicity assay, HT-29 (EpCAM-positive)” value amounted to 15 nM; the “IC50 (nM), MTS cytotoxicity assay, MCF-7 (EpCAM-positive)” value came out at 2.3 nM; the “IC50 (nM), MTS cytotoxicity assay, OVCAR-3 (EpCAM-positive)” value is 2.9 nM. Moreover, the “FI (fold increase) at 100 ng/mL” value in [9] came out at 27.7 fold. In addition, the “FI (fold increase) at 100 ng/mL” value in assay [10] stood at 14 fold.

B3: VB6-845 VH-IIr-N35-Q98 / VL-WT (Fab)
heavy: B2 heavy
light: B2 light with K24R, S47K, H58N, I111L
For the molecule B3, the “MF (median fluorescence, % of WT)” value in assay [11] is 100 % of WT.

B4: VB6-845 VH-WT / VL-IIr-KSHI (Fab)
heavy: EVQLVQSGPGLVQPGGSVRISCAASGYTFTNYGMNWVKQAPGKGLEWMGWINTYTGESTYADSFKGRFTFSLDTSASAAYLQINSLRAEDTAVYYCARFAIKGDYWGQGTLLTVSSASTKGPSVFPLAPSSKSTSGGTAALGCLVKDYFPEPVTVSWNSGALTSGVHTFPAVLQSSGLYSLSSVVTVPSSSLGTQTYICNVNHKPSNTKVDKKVEPKSC
light: B2 light
For the molecule B4, the “MF (median fluorescence, % of WT)” value in assay [12] is 89 % of WT.

B5: VB5-845-WT (non-deimmunized VB5-845 Fab fragment) (Fab, V domains shown)
VH: EVQLVQSGPGLVQPGGSVRISCAASGYTFTNYGMNWVKQAPGKGLEWMGWINTYTGESTYADSFKGRFTFSLDTSASAAYLQINSLRAEDTAVYYCARFAIKGDYWGQGTLLTVSS
VL: DIQMTQSPSSLSASVGDRVTITCRSTKSLLHSNGITYLYWYQQKPGKAPKLLIYQMSNLASGVPSRFSSSGSGTDFTLTISSLQPEDFATYYCAQNLEIPRTFGQGTKVELKR
As for B5, the values for the Kd in [13] and in assay [14] were 1.56 nM and 1.46 nM, respectively.

B6: VB5-845-Algo Fab (Fab, V domains shown)
VH: EVQLQQSGPGLVQPGGSVRISCAASGYTFTAYGMNWVRQAPGKGLEWMGWINTYTGESTYADSFKGRFEFSLDTHNSSAYLQIQSLREEDTAVYYCARFAIQGDYWGQGTLVTVSS
VL: B5 VL with R24K, K47S, N58H, L111I
Regarding B6, the Kd (commonly the concentration at which binding is half-saturated) in assay [13] worked out at 1.31 nM.
